# Test results published in article PMC4351142 (Structure (London, England : 1993), 2015).
# B1: HsHsc70_(541-646)Δ_(626-638) (domain or fragment, human, UniProt P11142 541-646, looked up)
# chain: SLESYAFNMKATVEDEKLQGKINDEDKQKILDKCNEIINWLDKNQTAEKEEFEHQQKELEKVCNPIITKLYQSAGGMPGGMPGGFGPTIEEVD
# Tests used:
# [1] = biological target: CHIP-TPR domain (HsCHIP 21-154) (human) (UniProt Q9UNE7); test: NMR titration
# [2] = biological target: T1, CHIP-TPR domain (HsCHIP 21-154) (human, UniProt Q9UNE7 21-154); test: crystal structure
# T1 sequence (looked up): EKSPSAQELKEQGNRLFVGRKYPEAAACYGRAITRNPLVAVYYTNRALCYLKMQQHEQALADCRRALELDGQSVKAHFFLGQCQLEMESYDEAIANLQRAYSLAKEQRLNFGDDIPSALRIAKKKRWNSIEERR
Molecule,Kd [1],binding result [2]
Hsc70-lid-tail-ΔGPTIEEVD (domain or fragment),> 100 µM,
B1,,binds
